Measurements: paper PMC6917787, “Structural basis of nucleosome assembly by the Abo1 AAA+ ATPase histone chaperone” (Nature Communications, 2019)

Key:
[1] = tested on: Histone H3-H4, Cy5-labelled ((only implied by the reviewer comments)); assay: single-molecule DNA curtain; settings: DNA curtain: 5 nM Abo1 and 12.5 nM Cy5-H3-H4 pre-incubated on ice 15 min with 1 mM nucleotide, then 15 min with DNA without flow, YOYO-1 washed out in assay …
[2] = target: the molecule itself; assay: SEC; Superose6 gel filtration of purified Abo1 in buffer with 2 mM EDTA, 2 mM MgCl2 or 2 mM MgATP
[3] = target: Cy3-labeled histone H3–H4 (X. laevis) (UniProt P84233); assay: fluorescence polarisation; fluorescence anisotropy; 0–1 μM Abo1 added to 20 nM Cy3-labeled H3–H4; 30 mM HEPES pH 7.5, 200 mM NaCl, 1 % glycerol, 2 mM MgCl2, 0.01 % NP-40; room temperature; affinity not significantly changed with nucleotide
[4] = target: the molecule itself; assay: cryo-EM structure; Abo1 in 20 mM HEPES pH7.5, 250 mM NaCl, 1 mM DTT, 0.025 % octyl β-D-glucoside with 2 mM MgCl2 (apo), 2 mM MgADP or 2 mM MgATP (Walker B mutant)

In the case of “lambda phage DNA (single-tethered DNA curtain)”, the binding signal (% DNA with bound H3-H4) [1] is reported as 5.24, the binding signal (% DNA with bound H3-H4) ([1]; loading by wild-type Abo1 (5 nM), 1 mM ATP) is reported as 85 and the binding signal (% DNA with bound H3-H4) ([1]; wild-type Abo1, no ATP) is reported as less than 10.

B1: Abo1 (aa243–1190), wild type (enzyme, Schizosaccharomyces pombe, UniProt O14114 243-1190, looked up)
chain: GRIREKSDLADSDPLGVDSSLSFESVGGLDNYINQLKEMVMLPLLYPEIFQRFNMQPPRGVLFHGPPGTGKTLMARALAAACSSENKKVSFYMRKGADCLSKWVGEAERQLRLLFEEAKSTQPSIIFFDEIDGLAPVRSSKQEQIHASIVSTLLALMDGMESRGQVIIIGATNRPDAVDPALRRPGRFDREFYFPLPDRDARKKIIEIHTRNWDPPVPEWLCSMLAEKSKGYGGADLRALCTEAALNSIKRTYPQLYRSTKRLQIDPKTIKVKVKDFVMSMKRMIPSSERSSISPSKPLSPELKPLLNEAFQDIEKTLQKLMPVASKLNPLEEVMYDDPKENDFEYQQRLETFETLRIYKPRFLICGRKGLGQTALGPAILQQYEGVHVQSFDMSTLLQDSTQSIETSIIHLFLEVRRHTPSIIYIPDIDNWLNVLPLTAITTFSSMLERLDFSDQILFLALSSSPLSELHPQLREWFSSKQSVYSLQYPTRDSIIAFFQPILELIKASPTELPGGIPRKRRVLPELPLAPDPPPFTSQKITLKQTKQADMRLLNKLKIKLNALLGSLRARYRKFKKPLIDFNDIYCVDPETGHSYRSREECHYEFVDDVVKQIGSDQKFSMMSLEEIEKRTWDNCYCTPKQFVHDIKLILRDALQLEDSETIKRAQEMYANVLLGVEDMEDDQFSQRCERMALREAERRKLRHGKLQKHLDETKADMQFTSEKPSVDESITEVDDAIKDGPPVLAETLTNSLMEDVGPENVDMDIEDNEIFTNQSTMSVPSMLVENEESPKPDEYIDQKDKVQSPLLNGKSPVGVPSEAALRVSTDVSTNISSNGRADIPVDTLITSPADVPNNAPTDAHNITSADGHIENIEQEVVFPDLVFDEDRLTPLKQLLIDSTTGFTVDQLLHLHSFLYQIIWNTKSEWNRNSVVDECERAVKEFMINALQ
notes: Abo1, Schizosaccharomyces pombe ATAD2 homolog, aa243–1190 (acidic N-terminus truncated; two AAA+ domains, bromodomain and C-terminal domain); Gene synthesized (Genscript), pFastBac-HTB; also called recombinant Abo1; wild-type Abo1; source: Sf9 (baculovirus), purified (Ni-NTA, TEV cleavage, HiTrapQ); not shown: 6xHis, N-terminal, cleaved
In the case of B1, the “stoichiometry N” value [2] is reported as 6 and the Kd [3] is reported as 23 nM.

B2: Abo1 Walker B mutant (E372Q), aa243–1190 (enzyme, Schizosaccharomyces pombe, UniProt O14114 243-1190, looked up)
chain: GRIREKSDLADSDPLGVDSSLSFESVGGLDNYINQLKEMVMLPLLYPEIFQRFNMQPPRGVLFHGPPGTGKTLMARALAAACSSENKKVSFYMRKGADCLSKWVGEAERQLRLLFEEAKSTQPSIIFFDQIDGLAPVRSSKQEQIHASIVSTLLALMDGMESRGQVIIIGATNRPDAVDPALRRPGRFDREFYFPLPDRDARKKIIEIHTRNWDPPVPEWLCSMLAEKSKGYGGADLRALCTEAALNSIKRTYPQLYRSTKRLQIDPKTIKVKVKDFVMSMKRMIPSSERSSISPSKPLSPELKPLLNEAFQDIEKTLQKLMPVASKLNPLEEVMYDDPKENDFEYQQRLETFETLRIYKPRFLICGRKGLGQTALGPAILQQYEGVHVQSFDMSTLLQDSTQSIETSIIHLFLEVRRHTPSIIYIPDIDNWLNVLPLTAITTFSSMLERLDFSDQILFLALSSSPLSELHPQLREWFSSKQSVYSLQYPTRDSIIAFFQPILELIKASPTELPGGIPRKRRVLPELPLAPDPPPFTSQKITLKQTKQADMRLLNKLKIKLNALLGSLRARYRKFKKPLIDFNDIYCVDPETGHSYRSREECHYEFVDDVVKQIGSDQKFSMMSLEEIEKRTWDNCYCTPKQFVHDIKLILRDALQLEDSETIKRAQEMYANVLLGVEDMEDDQFSQRCERMALREAERRKLRHGKLQKHLDETKADMQFTSEKPSVDESITEVDDAIKDGPPVLAETLTNSLMEDVGPENVDMDIEDNEIFTNQSTMSVPSMLVENEESPKPDEYIDQKDKVQSPLLNGKSPVGVPSEAALRVSTDVSTNISSNGRADIPVDTLITSPADVPNNAPTDAHNITSADGHIENIEQEVVFPDLVFDEDRLTPLKQLLIDSTTGFTVDQLLHLHSFLYQIIWNTKSEWNRNSVVDECERAVKEFMINALQ
notes: Abo1, Schizosaccharomyces pombe, aa243–1190, Walker B mutation E372Q; also called ATP-Abo1 Walker B mutant; ATP-Abo1; source: Sf9 (baculovirus), purified (Ni-NTA, TEV cleavage, HiTrapQ); not shown: 6xHis, N-terminal, cleaved
B2: binds [4].
